Publication PMC6182155 (Nucleic Acids Research, 2018)
Residue numbers refer to the chain shown, from its start. Names may count otherwise.

B1: EcoKMcrA with C-terminal His6-tag (EcoKMcrA_(1-277)-GHHHHHHG), wild type (enzyme, E. coli (K strains), UniProt P24200 1-277, looked up)
chain: MHVFDNNGIELKAECSIGEEDGVYGLILESWGPGDRNKDYNIALDYIIERLVDSGVSQVVVYLASSSVRKHMHSLDERKIHPGEYFTLIGNSPRDIRLKMCGYQAYFSRTGRKEIPSGNRTKRILINVPGIYSDSFWASIIRGELSELSQPTDDESLLNMRVSKLIKKTLSQPEGSRKPVEVERLQKVYVRDPMVKAWILQQSKGICENCGKNAPFYLNDGNPYLEVHHVIPLSSGGADTTDNCVALCPNCHRELHYSKNAKELIEMLYVNINRLQK
B2: EcoKMcrA K196E variant with N-terminal His6-tag (…-EcoKMcrA_(1-277)) (enzyme, E. coli (K strains), UniProt P24200 1-277, looked up)
chain: B1 chain with K196E

Columns and labels:
SEC = target: the molecule itself; assay: SEC
crystal structure = target: the molecule itself; assay: crystal structure

| Protein | stoichiometry N (SEC) | binding result (crystal structure) |
| --- | --- | --- |
| B1 | 2 | – |
| B2 | – | binds |
